US20120276537

Tested on: ZFNRosa (Rosa26-specific zinc finger nuclease pair) (synthetic construct)
Experiment: cell_activity
Settings: mouse zygote mRNA microinjection; 13 of 58 pups lost XbaI site; ZFN pair, half-sites of the monomers not stated; homologous recombination also seen (pup 22 …)

TGCAACTCCAGTCTTTCTAGAAGATGGGCGGGAGTC (double strand) [Rosa26 intron 1 ZFN target site]
activity (% of pups with NHEJ XbaI loss): 22
